Data on 4 molecules can be found in PMC6908968 (Cell, 2019).

Where two headings read alike, the source gives them in different places.

Assay [1] has as its target T1, EBOV GP ectodomain residues 1-636 (GPec) (Zaire ebolavirus, strain  …, UniProt Q05320). Kind of assay: ELISA. To be noted: both partners purified.
Assay [2] has as its target EBOV glycoprotein (GP), Makona strain, full length mature, on Jurkat-GP cells (native GP) (Zaire ebolavirus, Makona (stand-in: …, UniProt P87666, strain)).
The target of assay [3] is T1, EBOV GP ectodomain residues 1-636 (GPec).
Assay [4] has as its target T2, thermolysin-cleaved EBOV GP on Jurkat-GP cells (cleaved GP) (Zaire ebolavirus, Makona (GP1 core …, strain)).
T2 chain 1: not shown
T2 chain 2: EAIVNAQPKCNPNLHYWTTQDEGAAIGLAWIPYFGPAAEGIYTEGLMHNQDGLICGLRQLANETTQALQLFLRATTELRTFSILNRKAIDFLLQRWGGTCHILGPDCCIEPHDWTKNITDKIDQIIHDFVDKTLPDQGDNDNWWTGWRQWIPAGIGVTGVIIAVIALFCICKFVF

B1: mAb 2.1.6C11 (antibody, V domains shown)
VH: GAEVKKPGASVKVSCKASGYTFTTYDINWVRQATGQGLEWMGWMNPNSGNTGYAQKFQGRVTMTRNTSISTAYMELRSLRSEDTAVYYCAPGVTFWGQGTLVTVSS
VL: PSSLSAPVGDRVTITCRASQGISNSLAWFQQKPGKAPKSLIYAASSLQSGVPSNFSGSGSGTDFTLTISSLQPEDFATYYCQQYNSYPWTFGQGTKVEIK
B1: the binding result in assay [1] is “binds”.

B2: mAb 5.1.10B3 (antibody, V domains shown)
VH: EVQLVESGGGLVQPGGSLRLSCAASGFTFRSYDMHWVRQATGKGLEWVSAIGTAGDTYYPGSVKGRFTISRENAKNSLYLQMNSLRAEDTAVYYCARVRFGDTAVDYWGQGTLVTVSS
VL: DIQMTQSPSSLSASVGDRVTITCRASQSISSFLNWHQQKPGKAPKLLIYAASSLQSGVPSRFSGSGSGTDFTLTISSLQPEDFAIYYCQQSYISPFTFGPGTKVDIK
With B2, in assay [1], the binding result was “binds”.

B3: 5.6.c3363 (antibody, V domains shown)
VH: EVKLVESGGDLIQPGGSLRLSCAGSGFTFSNYAMSWVRQAPGKGLEWVSGLSGSGRNTYYADSVKGRFTISRDNSQNTLFLQMNSLRAEDTAIYYCATASVWSGYVLQYWGQGALVIVSS
VL: DIQMTQSPSSLSASVGDRVTITCRASQNINDWLAWYQQKPGKAPKLLIFRASSLESGVPSRFSGSGFGTEFTLTISSLQPDDFASYYCQQYKSYPMYTFGQGTKLDIN
For the molecule B3, the binding result in assay [2], in assay [3] and in assay [4] was “binds” throughout.

B4: 5.6.c3105 (antibody, V domains shown)
VH: EEQLVESGGDLVQPGGSLRLSCAASGFTFRSYDMYWVRQVTGKGLEWVSVIGAGGDTYYSDAVKGRFTISRENAKNSLYLQMNNLRAGDTAVYYCARSFGFLYGFDVWGHGTTVTVSS
VL: ENVLTQSPGTLSLSPGERATLSCRASQSISSKYFAWYQHKPGQAPRVLIYAASSRATGVPDRFSGSGSGTDFTLTISRLEPEDFAVYYCQQYDSSPITFGQGTRLEIK
Take B4: the binding result in assay [2], in assay [3] and in assay [4] was “binds” in each case.
